B1: IgG 15033 (antibody, V domains shown)
VH: EVQLVESGGGLVQPGGSLRLSCAASGFDLGGYSMHWVRQAPGKGLEWVAGIYASGGATAYADSVKGRFTISADTSKNTAYLQMNSLRAEDTAVYYCARSYYYGGFGMDYWGQGTLVTVSS
VL: DIQMTQSPSSLSASVGDRVTITCRASQSVSSAVAWYQQKPGKAPKLLIYSASDLYSGVPSRFSGSRSGTDFTLTISSLQPEDFATYYCQQSYRYPITFGQGTKVEIK
B2: peptide-IgG 33^LN1 (peptide N1 fused to the N-terminus of the LC of IgG 15033) (antibody, V domains shown)
VH: B1 VH
VL: B1 VL
B3: peptide-IgG 33^HR1 (peptide R1 fused to the N-terminus of the HC of IgG 15033) (antibody, V domains shown)
VH: B1 VH
VL: B1 VL

What follows are binders tested against SARS-CoV-2 S-protein extracellular domain (ECD) (SARS-CoV-2, Wuhan-Hu-1 (ancestral), biotin, site-specific (BirA reaction) on the AviTag) (assay: BLI).

Point of comparison: B1, Kd 0.1 nM. Against it:
- B2 — lower, < 0.001 nM
- B3 — lower, < 0.001 nM

From article doi:10.1101/2021.11.29.470362 (bioRxiv, 2021)
